One substance from article PMC10784701 can be followed below.

The assay deals with RedM, N,N-dimethyltransferase of the reductasporine biosynthetic pathway. The assay is described as follows: SEC; size-exclusion chromatography of purified RedM in solution (Fig. S3); conditions of this run not shown. (In gel filtration, larger molecules generally elute earlier.)

Turning to “RedM, N,N-dimethyltransferase of the reductasporine biosynthetic pathway (enzyme)”, the stoichiometry N (in general, a count of units in the complex or per binding partner) came out at 2.
